The labels stand for the following.
B1: NKR-P1B tetramers (biotinylated NKR-P1B on streptavidin) [modified: biotin on the BirA tag; biotin on the BirA tag] [mouse] / Clr-b on transfected HEK293T cells [mouse] (parent)
chain 1: SAKLECPQDWLSHRDKCFHVSQVSNTWKECRIDCDKKGATLLLIQDQEELRFLLDSIKEKYNSFWIGLSYTLTDMNWKWINGTAFNSDVLKITGVTENGSCAAISGEKVTSEGCSSDNRWICQKELN
chain 2: MCVTKASLPMLSPTGSPQEVEVGKILQGKRHGTISPESCAKLYCYYGVIMVLTVAVIALSVALSATKTEQIPVNKTYAACPQNWIGVENKCFYFSEYPSNWTFAQAFCMAQEAQLARFDNQDELNFLMRYKANFDSWIGLHRESSEHPWKWTDNTEYNNTIPIRGEERFAYLNNNGISSTRIYSLRMWICSKLNSYSLHCQTPFFPS

Variants of B1 are the subject of this test. Kind of test: flow cytometry on cells (PE-tetramer staining). Particulars: with Clr-b on transfected HEK293T cells [mouse]; HEK293T cells stained 48 h after transfection with Clr-b pIRES2-EGFP; parent: 3.14e+03. For orientation: In flow cytometry, cells or beads pass a laser one at a time.
As for chain 1 SAKLECPQDWLSHRDKCFHVSQVSNTWKECRIDCDKKGATLLLIQDQEELRFLLDSIKEKYASFWIGLSYTLTDMNWKWINGTAFNSDVLKITGVTENGSCAAISGEKVTSEGCSSDNRWICQKELN [chain 1 N62A], the response amounted to 4880 MFI.
With chain 1 SAKLECPQDWLSHRDKCFHVSQVSNTWKECRIDCDKKGATLLLIQDQEELRFLLDSIKEKYNSFWIGLSYTLTAMNWKWINGTAFNSDVLKITGVTENGSCAAISGEKVTSEGCSSDNRWICQKELN [chain 1 D74A], the response came out at 212 MFI.
Turning to chain 1 SAKLECPQDWLSHRDKCFHVSQVSNTWKECRIDCDKKGATLLLIQDQEELRFLLDSIKEKYNSFWIGLSYTLTDMNWKWINGTAFNSDVLKITGVTENGSCAAISGEKVTSEGCASDNRWICQKELN [chain 1 S115A], the response is 178 MFI.
chain 1 SAKLECPQDWLSHRDKCFHVSQVSATWKECRIDCDKKGATLLLIQDQEELRFLLDSIKEKYNSFWIGLSYTLTDMNWKWINGTAFNSDVLKITGVTENGSCAAISGEKVTSEGCSSDNRWICQKELN [chain 1 N25A]: the response came out at 5680 MFI.
Turning to chain 1 SAKLECPQDWLSHRDKCFHVSQVSNTWKECRIDCDKKGATLLLIQDQEELRFLLDSIKEKYNSFWIGLSYTLTDMNWKWINGTAFNSDVLKITGATENGSCAAISGEKVTSEGCSSDNRWICQKELN [chain 1 V95A], the response is 5900 MFI.
The figure for chain 1 SAKLECPQDWLSHRDKCFHVSQVSNTWKECRIDCDKKGATLLLIQDQEELRFLLDSIKEKYNSFWIGLSYTLTDMNWKWINGTAFNSDVLKITGVTENGSCAAISGEKVTSEGCSSDNAWICQKELN [chain 1 R119A] is 238 MFI; for chain 1 SAKLECPQDWLSHRDKCFHVSQVSNTWKECRIDCDKKGATLLLIQDQEELRFLLDSIKEKYNSFWIGLSYTLTDMNWKWINGTAFNSDVLKITGVTENGSCAAISGEKVTSEGCSADNRWICQKELN [chain 1 S116A] it is 211 MFI.
On to chain 1 SAKLECPQDWLSHRDKCFHVSQVSNTWKECRIDCDKKGATLLLIQDQEELRFLLDSIKEKYNSFWIGLSYTLTDMNWKWINGTAFNSDVLKITGVTENGSCAAISGEKVTSEGCSRDNRWICQKELN [chain 1 S116R], for which the response is 198 MFI.
The figure for chain 1 SAKLECPQDWLSHRDKCFHVSQVSNTWKECRIDCDKKGATLLLIQDQEELRFLLDSIKEKYNSFWIGLSYTLTDMNWKWINGTAFNSDVLKITGVTENGSCAAISGEKVTSEGCSSDARWICQKELN [chain 1 N118A] is 213 MFI; for chain 1 SAKLECPQDWLSHRDKCFHVSQVSNTWKECRIDCDKKGATLLLIQDQEELRFLLDSIKEKYNSFWIGLSYTLTDMNWKWINGTAFNSDVLKITGVTENGACAAISGEKVTSEGCSSDNRWICQKELN [chain 1 S100A] it is 217 MFI; for chain 1 SAKLECPQDWLSHRDKCFHVSQVSNTWKECRIDCDKKGATLLLIQDQEELRFLLDSIKEKANSFWIGLSYTLTDMNWKWINGTAFNSDVLKITGVTENGSCAAISGEKVTSEGCSSDNRWICQKELN [chain 1 Y61A] it is 346 MFI.
With chain 1 SAKLECPQDWLSHRDKCFHVSQVSNTWKECRIDCDKKGATLLLIQDQEELRFLLDSIKEKYNSFWIGLSYTLTDMNWKWINGTAFNSDVLKITGVTENGSCAAISGEKVTAEGCSSDNRWICQKELN [chain 1 S111A], the response is 229 MFI.
With chain 1 SAKLECPQDWLSHRDKCFHVSQVSNTWKECRIDCDKKGATLLLIQDQEELRFLLDSIKEKYNSFWIGLSYTLTDMNWKWINGTAFNSDVLKITGVTENGSCAAISGEKVTSAGCSSDNRWICQKELN [chain 1 E112A], the response turned out to be 269 MFI.
For chain 1 SAKLECPQDWLSHRDKCFHVSQVSNTWKECRIDCDKKGATLLLIQDQEELRFLLDSIKEKYNSFWIGLSYTLTDMNWKWINGTAFNSDVLKITGVAENGSCAAISGEKVTSEGCSSDNRWICQKELN [chain 1 T96A], the response came to 208 MFI.
The figure for chain 1 SAKLECPQDWLSHRDKCFHVSQVSNTWKECRIDCDKKGATLLLIQDQEELRFLLDSIKEKYNSFWIGLSYTLTDMNWKWINGTAFNSDVLKITGVTENGSCAAISGEKVTSEGCSSANRWICQKELN [chain 1 D117A] is 232 MFI.

(Values after publication PMC6218473, “Recognition of host Clr-b by the inhibitory NKR-P1B receptor provides a basis for missing-self recognition” (Nature Communications, 2018).)
